# Where no end group is shown, it is not given here. [ ]: non-standard residue; d: D form. pY = N[C@@H](Cc1ccc(OP(=O)(O)O)cc1)C(=O)O; pT = C[C@@H](OP(=O)(O)O)[C@H](N)C(=O)O
# T1: c-Cbl TKB domain (UniProt P22681 25-351)
# T1 construct: these are not the construct limits; source: cloning, expression and purification as described previously [14]; purified
# T1 sequence: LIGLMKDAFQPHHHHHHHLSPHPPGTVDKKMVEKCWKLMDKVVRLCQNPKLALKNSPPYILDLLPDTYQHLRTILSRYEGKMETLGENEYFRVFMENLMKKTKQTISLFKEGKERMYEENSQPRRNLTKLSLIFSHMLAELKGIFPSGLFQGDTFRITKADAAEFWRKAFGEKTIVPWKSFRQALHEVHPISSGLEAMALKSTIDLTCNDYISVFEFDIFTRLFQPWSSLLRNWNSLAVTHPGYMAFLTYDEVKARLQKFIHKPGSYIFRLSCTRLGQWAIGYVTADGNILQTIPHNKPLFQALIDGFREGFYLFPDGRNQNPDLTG
# Target: T1, c-Cbl TKB domain
# Conditions: both partners purified
row,Kd,Binder
1,0.31 µM,IRNTNE[pY]TEGPT (also called pSpry2; pSprouty2) [Tyr55 phosphorylated Spry2 peptide]
2,3.83 µM,"IRNTNE[pY][pT]EGPT (Sprouty2 (Spry2), human; also called ppSpry2; pYpT-Spry2; source: synthetic peptide, bought: GL Biochem) [pTyr55/pThr56 Spry2 peptide]"
